{
  "source": "patent US11479791B2",
  "about": "“Tools and methods for expression of membrane proteins” (VIB VZW, priority 2012, dated 2022)",
  "key": {"[1]": {"target": "T1, human CXCR4 receptor (hCXCR4Rho1D4) (Homo sapiens, UniProt P61073)", "T1 construct": "expressed in transfected cells; host or cells: Pichia pastoris GS115", "T1 sequence (P61073 with tags, fused parts or gaps isoform P61073-2)": "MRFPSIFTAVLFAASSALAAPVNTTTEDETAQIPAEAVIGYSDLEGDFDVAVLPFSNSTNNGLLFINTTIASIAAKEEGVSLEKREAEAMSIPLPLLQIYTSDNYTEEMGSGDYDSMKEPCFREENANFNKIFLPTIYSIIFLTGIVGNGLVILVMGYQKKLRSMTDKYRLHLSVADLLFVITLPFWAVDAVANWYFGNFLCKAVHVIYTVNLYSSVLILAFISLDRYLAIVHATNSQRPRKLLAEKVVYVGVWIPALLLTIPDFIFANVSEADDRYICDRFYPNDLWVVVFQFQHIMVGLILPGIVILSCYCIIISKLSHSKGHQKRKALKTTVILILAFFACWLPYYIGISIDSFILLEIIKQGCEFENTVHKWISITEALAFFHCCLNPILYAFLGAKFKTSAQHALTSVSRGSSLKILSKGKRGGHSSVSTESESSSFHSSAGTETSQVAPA", "test": "hCXCR4-Nb co-expression in P. pastoris GS115; anti-Rho1D4 immunoblot of membrane protein, quantified by Odyssey software", "format": "cell-based", "details": "for change of hCXCR4 receptor expression upon Nb co-expression (in words): immunoblot, versus GS115hCXCR4 clone without Nb co-expression", "protocol": "An hCXCR4 expressing Pichia clone was transformed with the four linearized Nanobody expressing vectors as described before. Twenty-four positive clones (six per Nb) were analyzed for protein expression. Growth conditions and membrane protein sample preparations were done as previously described. Equal amounts of total membrane protein (determined by a BCA assay) of induced P. pastoris GS115 clones, expressing only the human CXCR4 receptor, or in combination with one of the anti-hCXCR4 Nanobodies, were run on a 12% SDS-PAGE gel and blotted on a nitrocellulose membrane. The blot was developed with a primary mouse anti-Rho1D4 monoclonal antibody and a secondary Dylight (800 nm) goat anti-mouse IgG on an LI-COR odyssey system. […] The quantification was performed by the Odyssey software by measuring relative fluorescent signals (Table 3).\nAn hCXCR4 expressing Pichia clone was transformed with the linearized Nanobody expressing vector as described before. Three positive clones were analyzed for protein expression. Growth conditions and membrane protein sample preparations were done as previously described. Equal amounts of total membrane protein (determined by a BCA assay) of induced P. pastoris GS115 clones, expressing only the human CXCR4 receptor, or in combination with a anti-hCXCR4 Nanobody (NbCA4142), or in combination with the negative control Nanobody (NbCA4910), were run on a 12% SDS-PAGE gel and blotted on a nitrocellulose membrane. The blot was developed with a primary mouse anti-Rho1D4 monoclonal antibody and a secondary Dylight (800 nm) goat anti-mouse IgG on an LI-COR odyssey system. For the hCXCR4-specific Nb co-expressing clone we detect more of the anti-Rho1D4 immunoreactive membrane protein band compared to the GS115hCXCR4 clone without Nb co-expression. […] Exact quantification has been calculated by the Odyssey software by measuring relative fluorescent signals (Table 4). It can, thus, be concluded that the increase in receptor expression can be attributed to the Nanobody-specific interaction with the receptor.\nStable positive clones were typically grown in 2 ml (24-well format) or 12.5 ml (shake-flasks) BMGY medium for 48 hours (250 rpm; 28° C.). The cells were harvested by centrifugation and resuspended in the same amount of BMMY medium (1% methanol; 0.5% of methanol was added after 12 hours to maintain induction). After 24 hours the cells were harvested for membrane protein preparations (analysis of hCXCR4 expression and intracellular Nb retention) and the supernatant was used for analysis of extracellular protein expression on SDS-PAGE (Nanobodies).\nThe cell pellet corresponding to 1 ml of saturated yeast culture (OD600 60-80) was suspended in 1 ml of PBS+Protease inhibitor (Roche). Together with 200 μl of acid washed glass beads, the samples were vortexed heavily at 4° C. for 2×5 minutes. Glass beads, cell debris and intact cells were removed by centrifugation at 2000 rpm (5 min; 4° C.). The supernatant was kept as such or was centrifuged for 45 minutes at 13,000 rpm in a desktop centrifuge at 4° C. The supernatant, cytosolic fraction was discarded and the pellet fraction was re-dissolved in the same amount of fresh PBS+PI by sonication until a homogenous sample was obtained.\nTotal membrane protein concentration was determined by the BCA protein assay kit (Pierce, Thermo Scientific).\nProtein samples were analyzed by SDS-poly-acrylamide gel electrophoresis, according to the Laemmli (Laemmli et al., 1970, Nature, 227:680) or the Tricine method (Schägger et al., 2006, Nat. Protoc. 1:16-22). Before loading on gel, the samples were mixed with 5× Laemmli (60 mM Tris-HCl pH 6.8; 2% SDS, 10% glycerol, 5% β-ME; 0.01% bromophenol blue) and heated for 10 minutes at 95° C. (only the ECM samples, not the membrane protein preparations). Prestained protein markers in the range of 10-250 kDa, Precision Plus protein standards (Bio-Rad), were used as molecular standards. […]"}, "β2-adrenergic receptor": {"target": "T2, β2-adrenergic receptor (Mesocricetus auratus, UniProt P04274)", "T2 construct": "expressed in transfected cells", "test": "Purification of β2AR-Nanobody complex from HEK293S cells by Ni2+ affinity chromatography", "format": "binding", "details": "upon the addition of the antagonist alprenolol hydrochloride; FIG. 10", "excerpt": "The same technique as in Example 4 can be used using a Nanobody that binds an intracellular epitope of the membrane protein. Nanobody CA2780 (amino acid sequence: SEQ ID NO:5; Nucleotide sequence: SEQ ID NO:23) is an example of a Nanobody that binds an intracellular epitope of the β2-adrenergic receptor and that stabilizes the receptor in its active conformation (Rasmussen et al., 2011, Nature 469: 175). We transformed a HEK293 cell line that has a stable inducible β2AR expression with the pCAGGSNbCA2780-plasmid (see Material and Methods section) for transient expression. This Nanobody is not fused to a secretion signal and, therefore, resides in the cytosol upon expression, to allow interaction with the intracellular side of the membrane protein. Nanobody CA2780 has a hexaHis-tag and can, therefore, be purified using Ni^2+ affinity chromatography. […] In this way we strongly enrich for the receptor fraction that is in a well-folded state, because the Nanobody can only bind the receptor when it is in its native fold. This step strongly increases homogeneity in a membrane protein sample going to f.e. crystallization trials. If necessary, a subsequent purification using anti-Rho1D4 affinity chromatography can further enrich the sample for the receptor. […]"}, "hCXCR4 receptor": {"target": "T3, hCXCR4 receptor (Homo sapiens, UniProt P61073)", "T3 construct": "made in house; host or cells: Pichia pastoris GS115 co-expressing clone", "T3 sequence (P61073 with tags, fused parts or gaps isoform P61073-2)": "as above", "test": "Purification of hCXCR4-Nanobody complex from co-expressing P. pastoris clone by Ni2+ affinity chromatography", "format": "binding", "details": "DDM-solubilized membrane protein of co-expressing clone; FIG. 9", "excerpt": "In this way we only purify the receptor fraction that is in a well-folded state, because the Nanobody can only bind the receptor when it is in its native fold. This step strongly increases homogeneity in a membrane protein sample which is useful, for example, for crystallization. […] In case an even more pure sample is required, an extra step of affinity chromatography can be performed using an anti-Rho1D4 affinity matrix, which targets the hCXCR4 part of the complex.\nThe cell pellet corresponding to 1 L of saturated yeast culture (OD600 60-80) was resuspended in a 1:1 (w/v) ratio of buffer A (1×PBS+Protease inhibitors). Together with 190 g of glass beads, the suspension was brought in the precooled DYNO®-MILL mixing chamber and cells were crushed for 5 minutes. The lysate was centrifuged for 10 minutes at 2,000 rpm (Sorvall F10S-6X500Y rotor) at 4° C. to remove cell debris and intact cells. The supernatant was centrifuged for an hour at 13,000 rpm (Sorvall F10S-6X500Y rotor) at 4° C. to pellet the membrane proteins. The pellet was resuspended in 10 ml buffer A with 1% DDM (n-Dodecyl β-D-maltoside) and put on a rotor for three hours at 4° C. to allow membrane protein solubilization. After solubilization, the solution is centrifuged for one hour at 13,000 rpm (Sorvall SS-34 rotor) at 4° C. to remove unsolubilized membrane proteins. […]"}, "[2]": {"details": "Table 3, anti-Rho1D4 immunoreactive hCXCR4 band, average of two independent experiments"}, "[3]": {"details": "Table 3, corrected for GS115 negative control"}, "[4]": {"details": "Table 4, co-expressing clone cl1"}, "[5]": {"details": "Table 4, co-expressing clone cl2"}, "[6]": {"details": "Table 4, co-expressing clone cl3"}},
  "data": [
    {"molecule": "NbCA4143: Nanobody directed against the extracellular side of the human CXCR4 receptor, SEQ ID NO:3, His6 tag (protein, listed as Lama glama, His6 tag) VHH: QVQLQESGGGLVQPGGSLRLSCAASGFTFSSYAMSWVRQAPGKGLEWVSTINSGGRSANYADSVKGRLTISRDNAKNTLHLQMNSLKPEDTALYYCARPRSVSRNYVPLGYDYLGQGTQVTVSSHHHHHH", "values": [
      {"measurement": "Fluorescent units", "setting": "[1]; [2]", "result": 41.06, "unit": "fluorescent units"},
      {"measurement": "Blank corrected", "setting": "[1]; [3]", "result": 37.72, "unit": "fluorescent units"}
    ]},
    {"molecule": "NbCA2780: Nanobody that binds an intracellular epitope of the β2-adrenergic receptor and stabilizes its active conformation (Rasmussen et al., 2011), SEQ ID NO:5 (protein, listed as Lama glama) VHH: MEVQLQESGGGLVQAGGSLRLSCAASGSIFSINTMGWYRQAPGKQRELVAAIHSGGSTNYANSVKGRFTISRDNAANTVYLQMNSLKPEDTAVYYCNVKDYGAVLYEYDYWGQGTQVTVSSAAAHHHHHH", "values": [
      {"measurement": "interaction between receptor and Nanobody (complex purified by Ni2+ affinity chromatography)", "setting": "β2-adrenergic receptor", "result": "strong interaction"}
    ]},
    {"molecule": "NbCA4142: Nanobody directed against the extracellular side of the human CXCR4 receptor, SEQ ID NO:2, His6 tag (protein, listed as Lama glama, His6 tag) VHH: QVQLQESGGGLVRTGGSLRLSCAGSGSFFSINPMGWYRQAPGQQRELVATITGSGSTNYADSVKGRFTISRDNAKNTLYLQMNSLKPEDTAVYYCNAGYFDRIGRRYDRWGQGTQVTVSSHHHHHH", "values": [
      {"measurement": "Fluorescent units", "setting": "[1]; [2]", "result": 35.81, "unit": "fluorescent units"},
      {"measurement": "Blank corrected", "setting": "[1]; [3]", "result": 32.47, "unit": "fluorescent units"},
      {"measurement": "Fluorescent units", "setting": "[1]; Table 4, control experiment", "result": 32.76, "unit": "fluorescent units"},
      {"measurement": "Blank corrected", "setting": "[1]; Table 4, control experiment, corrected for GS115 negative control", "result": 30.35, "unit": "fluorescent units"},
      {"measurement": "change of hCXCR4 receptor expression upon Nb co-expression (in words)", "setting": "[1]", "result": "more"},
      {"measurement": "retention of the receptor on Ni2+ affinity column via hexaHis-tagged Nanobody", "setting": "hCXCR4 receptor", "result": "strong retention of the receptor"}
    ]},
    {"molecule": "NbCA4910: negative control Nanobody which does not recognize the hCXCR4, SEQ ID NO:6 (protein, listed as Lama glama) VHH: QVQLVESGGGLVQPGGSLRLSCAASGSFRSIVSMAWYRQAPGKQRELVASSNSGGSTNYADSVKGRFTISRDNAKNTVYLQMNSLKPEDTAVYWCNVQNRLPGFDAFSGRSIAETYWGQGTQVTVSSAAAHHHHHH", "values": [
      {"measurement": "Blank corrected", "setting": "[1]; [4]", "result": 6.56, "unit": "fluorescent units"},
      {"measurement": "Fluorescent units", "setting": "[1]; [4]", "result": 8.97, "unit": "fluorescent units"},
      {"measurement": "Blank corrected", "setting": "[1]; [5]", "result": 17.89, "unit": "fluorescent units"},
      {"measurement": "Fluorescent units", "setting": "[1]; [5]", "result": 20.30, "unit": "fluorescent units"},
      {"measurement": "Blank corrected", "setting": "[1]; [6]", "result": 19.49, "unit": "fluorescent units"},
      {"measurement": "Fluorescent units", "setting": "[1]; [6]", "result": 21.90, "unit": "fluorescent units"},
      {"measurement": "change of hCXCR4 receptor expression upon Nb co-expression (in words)", "setting": "[1]", "result": "no increase in the receptor expression"}
    ]},
    {"molecule": "NbCA4140: Nanobody directed against the extracellular side of the human CXCR4 receptor, SEQ ID NO:1, His6 tag (protein, listed as Lama glama, His6 tag) VHH: QVQLQESGGGLVQPGGSLRLSCAASGSIFSINAMGWYRQAPGKQRELVAAITSGGSTNYADSVKGRFTISRDNAENTVYLQMNNLKPEDTAVYSCNAEGTSGSSRYRRRYEYWGKGTQVTVSSHHHHHH", "values": [
      {"measurement": "Fluorescent units", "setting": "[1]; [2]", "result": 39.95, "unit": "fluorescent units"},
      {"measurement": "Blank corrected", "setting": "[1]; [3]", "result": 36.61, "unit": "fluorescent units"}
    ]},
    {"molecule": "NbCA4500: Nanobody directed against the extracellular side of the human CXCR4 receptor, SEQ ID NO:4, His6 tag (protein, listed as Lama glama, His6 tag) VHH: QVQLQESGGGLVQAGGSLRLSCAASGSTSGIIAMGWYRQAPGKQRELVARISSGSSTNYADSVKGRFTVSRDNAKNTVYLQMNSLKPEDTAVYYCNAVRRGYRNDYNSWGQGTQVTVSSHHHHHH", "values": [
      {"measurement": "Fluorescent units", "setting": "[1]; [2]", "result": 21.59, "unit": "fluorescent units"},
      {"measurement": "Blank corrected", "setting": "[1]; [3]", "result": 18.25, "unit": "fluorescent units"},
      {"measurement": "change of hCXCR4 receptor expression upon Nb co-expression (in words)", "setting": "[1]", "result": "slight increase"}
    ]}
  ]
}
